Laboratory results: patent US20220363770A1 (Amgen, published 2022)
Changes are numbered by the printed parent chain.

B1: anti-CGRP receptor variant antibody 04, bivalent monoclonal antibody (antibody, human IgG1, lambda, N297G, V domains shown)
VH: QVQLVESGGGVVQPGRSLRLSCAASGFTFSSFGMHWVRQAPGKGLEWVAVISFDGSIKYSVDSVKGRFTISRDNSKNTLFLQMNSLRAEDTAVYYCARDRLNYYRSFGYYGYHYYGMAVWGQGTTVTVSS
VL: QSVLTQPPSVSAAPGQKVTISCSGSSSNIGNNYVSWYQQLPGTAPKLLIYDNNKRPSGIPDRFSGSKSGTSATLGITGLQTGDEADYYCGTWDSRLSAVVFGGGTKLTVLG
B2: 4E4.2 parental antibody, bivalent monoclonal antibody (antibody, human IgG1, lambda, N297G, V domains shown)
VH: B1 VH with R105E, F107S, G111H, H113K
VL: B1 VL
B3: anti-CGRP receptor variant antibody 05, bivalent monoclonal antibody (antibody, human IgG1, lambda, N297G, V domains shown)
VH: B1 VH with R105E, F107S, G111H, H113K
VL: QSVLTQPPSVSAAPGQKVTISCSGSFSNIGRSTVSWYQQLPGTAPKLLIYDNRWRAGGIPDRFSGSKSGTSATLGITGLQTGDEADYYCGTWDYQWKAVVFGGGTKLTVLG
B4: 4E4.2 parental Fab, yeast-displayed (Fab, V domains shown)
VH: B1 VH with R105E, F107S, G111H, H113K
VL: B1 VL
notes: also called parental 4E4.2 Fab
B5: anti-CGRP receptor variant 06, yeast-displayed Fab (Fab, V domains shown)
VH: B1 VH with R105E, F107S, G111H, H113K
VL: B1 VL with S26Y, N31R, N32K, Y33S
notes: also called Variant Ab ID 06
B6: anti-CGRP receptor variant 12, yeast-displayed Fab (Fab, V domains shown)
VH: B1 VH with R105E, F107S, G111H, H113K
VL: B3 VL with F26R, S32Y, T33S, W54Y, G57Q, Y94W, Q95A, W96T, K97T, A98S
notes: also called Variant Ab ID 12
B7: anti-CGRP receptor variant 02, yeast-displayed Fab (Fab, V domains shown)
VH: B1 VH with R105E, F107S, G111H, H113K
VL: B1 VL with S26R, N31I, N32K, Y33A
notes: also called Variant Ab ID 02
B8: anti-CGRP receptor variant 01, yeast-displayed Fab (Fab, V domains shown)
VH: B1 VH with R105E, F107S, G111H, H113K
VL: B1 VL with S26Y, N31R, N32Y, Y33S
notes: also called Variant Ab ID 01
B9: anti-CGRP receptor variant 05, yeast-displayed Fab (Fab, V domains shown)
VH: B1 VH with R105E, F107S, G111H, H113K
VL: B3 VL
notes: also called Variant Ab ID 05
B10: anti-CGRP receptor variant 04, yeast-displayed Fab (Fab, V domains shown)
VH: B1 VH
VL: B1 VL
notes: also called Variant Ab ID 04
B11: anti-CGRP receptor variant 07, yeast-displayed Fab (Fab, V domains shown)
VH: B1 VH with T28Y, S30M, S31T, F32Y, R105E, F107S, G111H, H113K
VL: B1 VL
notes: also called Variant Ab ID 07

Target: T1, human CGRP receptor (human CRLR / human RAMP1 heterodimer) (human, UniProt Q16602 23-461; O60894 27-148)
Test: cell-based or functional assay

T1 sequence (Q16602 23-461 limits assumed, chain 1 of 2): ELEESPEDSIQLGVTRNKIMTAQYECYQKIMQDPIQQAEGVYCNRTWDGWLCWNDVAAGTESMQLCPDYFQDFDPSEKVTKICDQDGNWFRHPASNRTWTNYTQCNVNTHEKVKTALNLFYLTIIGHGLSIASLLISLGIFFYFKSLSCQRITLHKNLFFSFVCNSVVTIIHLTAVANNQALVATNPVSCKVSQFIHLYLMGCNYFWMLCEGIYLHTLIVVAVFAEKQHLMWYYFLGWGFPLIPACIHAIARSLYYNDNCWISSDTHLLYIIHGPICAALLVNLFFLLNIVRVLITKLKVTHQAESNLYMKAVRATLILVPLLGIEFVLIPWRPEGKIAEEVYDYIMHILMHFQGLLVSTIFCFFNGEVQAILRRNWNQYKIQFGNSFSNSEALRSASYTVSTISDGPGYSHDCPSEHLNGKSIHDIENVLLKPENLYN
T1 sequence (O60894 27-148 limits assumed, chain 2 of 2): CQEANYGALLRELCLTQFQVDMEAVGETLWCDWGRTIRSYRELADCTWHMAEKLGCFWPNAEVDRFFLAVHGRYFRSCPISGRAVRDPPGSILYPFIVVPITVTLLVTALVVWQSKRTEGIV

Binder | Average IC50 (nM), cell-based cAMP assay, SK-N-MC cells, 3 nM human α-CGRP | Fold-improvement over 4E4 Ab (IC50, cAMP assay) | Run 1 IC50 (nM), cell-based cAMP assay, SK-N-MC cells, 3 nM human α-CGRP | Run 2 IC50 (nM), cell-based cAMP assay, SK-N-MC cells, 3 nM human α-CGRP
B1 | 0.17 nM | 3.1 fold | 0.14 nM | 0.21 nM
B2 | 0.45 nM | 1.2 fold | 0.34 nM | 0.56 nM
B3 | 0.2 nM | 2.7 fold | 0.15 nM | 0.25 nM

Target: T2, cynomolgus monkey CGRP receptor (cynomolgus monkey, UniProt A0A2K5VQ71 34-472)
T2 construct: whole, on cells; Presented as detergent-solubilized lysate of HEK cells expressing the cynomolgus receptor; also called Cyno CGRP Receptor; Cynomolgus Monkey CGRP Receptor/HEK detergent-solubilized cell lysate
Test: yeast-displayed Fab, FACS, detergent-solubilized lysate of cynomolgus CGRP receptor/HEK cells vs blank cells

T2 sequence (A0A2K5VQ71 entry or part of it): as the sequence (Q16602 23-461 limits assumed, chain 1 of 2) above, with D55N, L431V counted along it

Binder | Cyno CGRP Receptor/Blank Cells Specific Binding | Mutant vs. 4E4.2 Parent Specific Binding Ratio
B4 | 1.9 ratio | 1 fold
B5 | 4.8 ratio | 2.5 fold
B6 | 10.3 ratio | 5.4 fold
B7 | 5.3 ratio | 2.8 fold
B8 | 4.6 ratio | 2.4 fold
B9 | 5.2 ratio | 2.7 fold
B10 | 3.1 ratio | 1.6 fold
B11 | 3.1 ratio | 1.6 fold

Target: T3, human CGRP receptor extracellular domain (ECD) (human, UniProt Q16602 23-138; O60894 27-117)
T3 construct: also called CGRP receptor ECD; human CGRP receptor ECD
Test: yeast-displayed Fab, FACS, 1 nM human CGRP receptor ECD

T3 sequence (Q16602 23-138 limits assumed, chain 1 of 2): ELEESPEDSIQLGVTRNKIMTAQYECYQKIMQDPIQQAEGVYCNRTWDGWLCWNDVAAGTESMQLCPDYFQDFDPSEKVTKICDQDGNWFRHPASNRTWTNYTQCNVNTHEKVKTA
T3 sequence (O60894 27-117 limits assumed, chain 2 of 2): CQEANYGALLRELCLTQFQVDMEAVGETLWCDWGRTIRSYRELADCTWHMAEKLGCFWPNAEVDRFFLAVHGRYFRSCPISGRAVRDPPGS

Binder | Mutant vs. 4E4.2 Parent B/D Ratio | Normalized Binding Signal/Display Signal (B/D)
B5 | 2.2 fold | 0.27 ratio
B6 | 2.8 fold | 0.35 ratio
B7 | 1.4 fold | 0.17 ratio
B8 | 1.7 fold | 0.21 ratio
B9 | 6.7 fold | 0.82 ratio
B10 | 1.6 fold | 0.2 ratio
B11 | 1.8 fold | 0.22 ratio

Target: T1, human CGRP receptor (human CRLR / human …)
Test: yeast-displayed Fab, FACS, detergent-solubilized lysate of human CGRP receptor-expressing cells vs blank cells

Binder | Human CGRP Receptor/Blank Cells Specific Binding | Mutant vs. 4E4.2 Parent Specific Binding Ratio
B4 | 8 ratio | 1 fold
B5 | 17.5 ratio | 2.2 fold
B7 | 14.2 ratio | 1.8 fold
B8 | 25.8 ratio | 3.2 fold
B9 | 24.4 ratio | 3.1 fold
B10 | 9.5 ratio | 1.2 fold
B11 | 11.7 ratio | 1.5 fold

Target: T4, human PAC1 receptor extracellular domain (ECD) (human, UniProt P41586 24-153)
T4 construct: also called PAC1 receptor ECD; PAC1 ECD
T4 sequence: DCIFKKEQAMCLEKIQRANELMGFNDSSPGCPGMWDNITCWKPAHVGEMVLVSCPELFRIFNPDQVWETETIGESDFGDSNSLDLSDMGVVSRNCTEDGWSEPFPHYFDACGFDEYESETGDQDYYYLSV
Test: yeast-displayed Fab, FACS, 10 nM PAC1 receptor ECD

Binder | Mutant vs. 4E4.2 Parent B/D Ratio | Normalized Binding Signal/Display Signal (B/D)
B5 | 1 fold | 0.1 ratio
B7 | 0.9 fold | 0.1 ratio
B8 | 0.8 fold | 0.09 ratio
B10 | 1.1 fold | 0.12 ratio
B11 | 1.2 fold | 0.13 ratio

Target: T3, human CGRP receptor extracellular …
Test: yeast-displayed Fab, FACS, 10 nM human CGRP receptor ECD

Binder | Mutant vs. 4E4.2 Parent B/D Ratio | Normalized Binding Signal/Display Signal (B/D)
B5 | 7.4 fold | 1.13 ratio
B6 | 9.7 fold | 1.5 ratio
B7 | 3.8 fold | 0.58 ratio
B8 | 5.8 fold | 0.89 ratio
B9 | 24.6 fold | 3.78 ratio
B10 | 3.4 fold | 0.53 ratio
B11 | 5.3 fold | 0.81 ratio
